In patent US7687489B2, “Agent for treatment of cerebral ischemic diseases” (Ono Pharmaceutical Co., Ltd., priority 2001, dated 2010):

Tested on: thrombin-induced focal cerebral ischemic model
Test: Thrombin-induced focal cerebral ischemic model: survival and neurological symptom score
Assay type: in vivo, male Wistar rats
Protocol: Twenty male Wistar rats (8-weeks age) were used as one group. The rats were anesthetized with halothane, followed by incision and then subjected to carotid artery shunting. A polyethylene catheter containing thrombin (10 international units) was catheterized into the carotid artery, and […] of blood was sucked and reserved in the catheter for 10 minutes. Then, thrombus formed in the catheter was infused into the carotid artery together with thrombin (J. Cereb. Blood Flow Metab., 17, 123 (1997)).
The neurological symptoms of said rats were scored according to the method as described in Brain Res., 452, 323 (1988). The evaluation of score was carried out at 6 hours, 24 hours, 48 hours and 72 hours after infusion of thrombin, and the scores were accumulated. The survival period was determined by monitoring surviving or dead rats at intervals of one hour for the first 72 hours after the infusion of thrombin.
From forty minutes after thrombin infusion, t-PA (Activacin 100,000 international units, product of Kyowa Hakko Kogyo Co., Ltd.) was continuously administered in an amount of 33 μL/min to the anesthetized rats for 15 minutes. (R)-2-propyloctanoic acid (hereinafter referred to as compound A) in an amount of 10 mg/mL/kg was administered through tail vein of the rats three times at 6 hours, 24 hours and 48 hours after the infusion of thrombin.

[1] = accumulated score, rats surviving 72 h, average ± standard error

B1: t-PA: tissue plasminogen activator, thrombolytic agent (Activacin, product of Kyowa Hakko Kogyo Co., Ltd.) (protein, UniProt P00750 36-562, looked up)
Tissue-type plasminogen …: SYQVICRDEKTQMIYQQHQSWLRPVLRSNRVEYCWCNSGRAQCHSVPVKSCSEPRCFNGGTCQQALYFSDFVCQCPEGFAGKCCEIDTRATCYEDQGISYRGTWSTAESGAECTNWNSSALAQKPYSGRRPDAIRLGLGNHNYCRNPDRDSKPWCYVFKAGKYSSEFCSTPACSEGNSDCYFGNGSAYRGTHSLTESGASCLPWNSMILIGKVYTAQNPSAQALGLGKHNYCRNPDGDAKPWCHVLKNRRLTWEYCDVPSCSTCGLRQYSQPQFRIKGGLFADIASHPWQAAIFAKHRRSPGERFLCGGILISSCWILSAAHCFQERFPPHHLTVILGRTYRVVPGEEEQKFEVEKYIVHKEFDDDTYDNDIALLQLKSDSSRCAQESSVVRTVCLPPADLQLPDWTECELSGYGKHEALSPFYSERLKEAHVRLYPSSRCTSQHLLNRTVTDNMLCAGDTRSGGPQANLHDACQGDSGGPLVCLNDGRMTLVGIISWGLGCGQKDVPGVYTKVTNYLDWIRDNMRP
B1 was tested, and the “Survival rate after 72 hours” value (72 hours after thrombin infusion, 20 rats per group, * p<0.05 vs control (Log-rank test)) was 35.0%, the “No. of surviving rats” value (72 hours after thrombin infusion, 20 rats per group, t-PA infused from 40 min for 15 min, compound A 10 mg/mL/kg i.v. at 6, 24, 48 h) was 7 and the “Neurological symptom score, 0 to 6 hours” value [1] was 3.4 ± 0.2. The “Neurological symptom score, 0 to 24 hours” value [1] was 3.4 ± 0.2, the “Neurological symptom score, 0 to 48 hours” value [1] was 3.1 ± 0.3 and the “Neurological symptom score, 0 to 72 hours” value [1] was 3.0 ± 0.3.
